Test results published in US20230220038A1, “BRI2 BRICHOS DOMAIN FOR DELIVERY OF PROTEINS INTO CNS NEURONS” (ALPHABETA AB, priority 2021, published 2023).

Experiments:
mouse primary neurons = assay: Uptake into primary neurons in culture, fluorescence microscopy; format: cell-based; conditions: low nanomolar concentrations in culture medium, 24-48 h
Experimental: The data in FIG. 11A indicate that the fusion protein rh NT-Bri2 BRICHOS is internalized in CNS cells and appears in intracellular vesicles. We studied the intracellular localization in more detail, using primary mouse neurons in culture and the recombinant fusion protein mCherry-Bri2 BRICHOS. Recombinant mCherry-Bri2 BRICHOS was added to the culture medium at low nanomolar concentrations, and after 24-48 h the neurons were immobilized and visualized under a fluorescence microscope.

[1] = system: hippocampal slice preparations; assay: Aβ42-induced neurotoxicity in hippocampal slice preparations
Aβ42 = Aβ42 (Homo sapiens, UniProt P05067); assay: Aβ42 oligomer generation; format: biochemical
Chain of Aβ42 (P05067 672-713 limits assumed): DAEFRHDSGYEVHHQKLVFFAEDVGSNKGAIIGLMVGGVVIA

mice = conditions: mouse, in vivo
[2] = system: App^NL-G-F and App^NL-F mice; conditions: mouse, in vivo, iv
Experimental: After the end of 10-12 weeks of treatment, Bri2 BRICHOS amounts in the CNS were analysed.
Representative sections (A,D) were double stained with anti-Bri2 BRICHOS antibody (red/pink color) and 82E1 anti-Aβ antibody (green color) counterstained with hematoxylin Mayer (blue color) in rh Bri2 BRICHOS R221E or PBS treated App^NL-G-F and App^NL-F mice. Histograms represents mean intensity of Bri2 BRICHOS in hippocampus (B,E) and cortex (C,F) of App^NL-G-F (B,C) and App^NL-F (E,F) mice. Data are shown as mean±SEM (n=3-4 mice/group, 4 histological sections from each mouse analyzed). Unpaired parametric two-tailed t-test was used to calculate p-values. Scale bars represents 400 μm (upper four panels in A and D) and 100 μm (lower two panels in A and D). * p<0.05, ** p<0.01, *** p<0.001, **** p<0.0001.

Substance	uptake into primary neurons (mouse primary neurons)	effect on Aβ42-induced neurotoxicity [1]	effect on Aβ42 oligomer generation (Aβ42)	BBB passage (mice)	overall Bri2 BRICHOS staining (mean intensity, hippocampus and cortex) versus PBS [2]
mCherry: control: ca 30 kDa fluorescent protein derived from sea anemones [reference compound]	not taken up to any detectable level				
Bri2 BRICHOS R221E monomers: rh Bri2 BRICHOS mutated R221E so that the monomer is stabilised (SEQ ID NO: 13)		alleviates Aβ42-induced neurotoxicity	selectively reduces Aβ42 oligomer generation	passes the BBB in mice and shows a trend towards higher passage than the wildtype protein	significant increase
